How the values were obtained:
MS2 coat protein [1] = assay: apparent KD of MS2 coat protein; designed switch direction (-1 OFF switch, 1 ON switch): 1; higher = weaker reporter binding; conditions: Eterna round: R98
Experimental: (§1)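 RNA-MaP: designed FMN/MS2 RNA switches (84 nt design region) are transcribed on-chip within common flanks and titrated with SNAP-549-labelled MS2 coat protein (about 1-3000 nM) in 100 mM Tris pH 7.5, 80 mM KCl, 4 mM MgCl2, without or with 200 uM FMN. Median apparent KD per design; activation ratio = KD,OFF / KD,ON.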

MS2 coat protein [2] = assay: apparent KD of MS2 coat protein; designed switch direction (-1 OFF switch, 1 ON switch): -1; higher = weaker reporter binding; conditions: Eterna round: R98
Experimental: as §1

MS2 coat protein [3] = assay: apparent KD of MS2 coat protein; higher = weaker reporter binding; conditions: Eterna round: R101
Experimental: as §1

Sequence | apparent KD of MS2 coat protein (MS2 coat protein [1]; input ligand: FMN 200 uM) | apparent KD of MS2 coat protein (MS2 coat protein [1]; input ligand: none) | further results
CAUAUAUGGUGAGGAUAUGCAGAGGAUCACCCUGUAGAAGGCAUCAGGGUAGAAGGUGCAAGGAUCACCUGUAAGGAUAUAUCC [pwkr2 ssNG1 DX.28] | 979 nM | 864 nM | 
AUCUAUCGGUCAGGAUAUUCACAUGAGGAUCACCCAUGUGAGCCUCGGCCAAAGUGAACGCAUGUGAAGAAGGGACGGCAAAAC [Atceen] |  |  | apparent KD of MS2 coat protein (MS2 coat protein [2]; input ligand: FMN 200 uM): 33.4 nM; apparent KD of MS2 coat protein (MS2 coat protein [2]; input ligand: none): 27.8 nM
CUGUGGGCCAUAGGAUAUGCGCAGAAUUAGCAAGCAGAAGGGUGGAUCGGACAAUAAUAACUACAUGAGGAUCACCCAUGUGCU [Lelegeza] | 55.5 nM | 139 nM | 
GCAGAAGGUGCGGAGGAUCACCCUGUAAGGAUAUGCAUUAGCAAGGAUAUACAGAGGAUCACCCUGUAGAAGGUGCACUUCAAA [pwkr2 ssNG3 DX.6] | 779 nM | 3160 nM | 
CAUGUAUGGUGAGGAUAUGCAAAGGAUCACCUUGUAGAAGGCAUCAGGUAGAAGGUGCAGAGGAUCACCCUGUAAGGAUAUAUC [pwkr2 ssNG1 DX.23] | 72 nM | 249 nM | 
GACGGAUUCUUAGGAUAUGCUCAGGAUAACUGAGCAGAAGGAAGAAUAACCUGAGGAUCACCCAGGUAAUACUGAACGUCAAUA [Same State NG1 - A3C, U17G Submission 9B] | 20.7 nM | 64.1 nM | 
GAGCAGGUAAAUAAACUCAAUUACAUGAGGAUCACCCAUGUAUAGGAUAUCGUCAGGAAUACUGACGAGAAGGAUACAUCCUGC [Exclusion NG 3/14-A2] |  |  | apparent KD of MS2 coat protein (MS2 coat protein [2]; input ligand: FMN 200 uM): 59.2 nM; apparent KD of MS2 coat protein (MS2 coat protein [2]; input ligand: none): 19.7 nM
GAAUAAUAGAUCCAAUUUAUCUACAUGAGGAUCACCCAUGUGCAGGAUAUGCUAAAAUUUAAUAAGCAGAAGGGCAAGAACGGC [JR_ExcNG3_Sub016] |  |  | apparent KD of MS2 coat protein (MS2 coat protein [2]; input ligand: FMN 200 uM): 374 nM; apparent KD of MS2 coat protein (MS2 coat protein [2]; input ligand: none): 104 nM
AUGAAGAGGCAAGGAUAUCGAGUGCUGGGCCUAUACAUGAGGAUCACCCAUGUCCUGGCAGGACGUGAGAAGGUGUAUCGAAUA [Ussotemaa] | 455 nM | 244 nM | 
AAUAAUCAGGUAGGAUAUGCUCAGGAAUACUGAGCAGAAGGACUAGAAACCUGAGGAUCACCCAGGUAACUGGAAUAAUAAUAA [Same State NG1 - A3C, U17G Submission 6A] | 53.6 nM | 78.3 nM | 
CCGUUGCAAAUAAAACAUGAGGAUCACCCAUGUGAGUCUCAUGAGGAUAUGCAGGUCAAAGACUUGCAGAAGGCAUGGCGACGG [Mat - Same State NG 3 - JL Mod - D67] | 118 nM | 1520 nM | 
UAACAGCGAAGAUAAUAAUGAAUACAUGAGGAUCACCCAUGUAAGGAUAUCGUCAGGAAUACUGACGAGAAGGUACAUACGCUG [Exclusion NG 3/17-B2] |  |  | apparent KD of MS2 coat protein (MS2 coat protein [2]; input ligand: FMN 200 uM): 23.2 nM; apparent KD of MS2 coat protein (MS2 coat protein [2]; input ligand: none): 16.7 nM
GCGCGCGCGCGCGCGCGCGCGCACAUGAGGAUCACCCAUGUAUAGGAUAUCGAUUGUUGUUGAUUCGAGAAGGGUAGCGCGCGC [Exclusion NG3] |  |  | apparent KD of MS2 coat protein (MS2 coat protein [2]; input ligand: FMN 200 uM): 44.1 nM; apparent KD of MS2 coat protein (MS2 coat protein [2]; input ligand: none): 39.4 nM
GACGAAUUCUUAGGAUAUCGAGUGGAUAACACUCGAGAAGGAAGAUAUACCUGAGGAUCACCCAGGUUAAACUGGACGUCAAUA [Same State NG1 - A3C, U17G Submission 8C] | 53.6 nM | 205 nM | 
AUAUAAAAUAUAGGAUAUGGAAACAUGAGGAUCACCCAUGUAUGAUAAGAUAAAUAAUGAUAUAGCCAGAAGGAUACAAUAUAA [LRO008_SS NG 2] | 47.5 nM | 38.2 nM | 
GCAGCUAAUGCAGGAUAUCAGCACGUGUAGUGCUGAGAAGGGCACAUGAGGAUACCCACUGUGAUCAAUUAAUAUUAAUGCUGC [salish99#hingeEx3_55-58_002] (puzzle (switch architecture): Exclusion NG 1) |  |  | apparent KD of MS2 coat protein (MS2 coat protein [3]; input ligand: FMN 200 uM): 18.4 nM; apparent KD of MS2 coat protein (MS2 coat protein [3]; input ligand: none): 50.2 nM
UAUUCUUUGUUAGGAUAUGGGCCCACCCACCCACAAAGUGGGUGGGUGGGCCCAGAAGGAACAUGAGGAUCACCCAUGUAGGCC [#Aaaddddeeeeeeennnniiiinneeeee!] (puzzle (switch architecture): Small Loop Exclusion NG 1) |  |  | apparent KD of MS2 coat protein (MS2 coat protein [3]; input ligand: FMN 200 uM): 88.5 nM; apparent KD of MS2 coat protein (MS2 coat protein [3]; input ligand: none): 6.16 nM
AAAUAAAAUAUAGGAUAUGGAAACAUGAGGAUCACCCAUGUAAGAUAAGAUAAAUAAUGAUAUAGCCAGAAGGAUAAAAUAUAA [LRO005_SS NG 2] | 32.7 nM | 28.3 nM | 
GGAGACCUCACAGGAUAUGCUGGACUUUGUCCAGCAGAAGGGUGAACAUGAGGAUCACCCAUGUAGGUCUCCAAAAUAUUUAAU [Denovo 50] | 989 nM | 100 nM | 
UCACUCACGUUAGGAUAUGGAUCGGAAAACGAUCCAGAAGGAACCUGCAAACAAGAGGAUCACCCUUGUUCCAAUAACGAGUGA [SameSame 6 - Jieux - Same State NG 1] | 40.9 nM | 51.2 nM | 
CGAACCACUUAGGUACCACACAUGAGGAUCACCCAUGUAUCACAGGAUAUGCAUGAUAUAUUCAGGCAGAAGGGUGAUCUUACC [Esananti] | 265 nM | 24.7 nM | 
CCAGAUAUAUGAGGAUAUCGAGUGGAAUACACUCGAGAAGGUAUGUGAAAACAUGAGGAUCACCCAUGUGAUUAAUAAUCUGGA [SameState NG1 #1] | 22.4 nM | 16.8 nM | 
GUCGGAAACGACAAGUCAGCUCGUGAGGAUAUACAUAAAUUAAAGAUCACAUGAGGAUCACCCAUGUAGAAGGCACGAGCUGAU [#StaticStemDeletion - ENG2/2-A2] (puzzle (switch architecture): Small Loop Exclusion NG 3) |  |  | apparent KD of MS2 coat protein (MS2 coat protein [3]; input ligand: FMN 200 uM): 455 nM; apparent KD of MS2 coat protein (MS2 coat protein [3]; input ligand: none): 195 nM
AGUUGCAAACAGAACAUGAGGAUCACCCAUGUGCUCUCGUGUAAGGAUAUACAUUCGUAUGGAAAGUAGAAGGUACUAAUUAUG [JR_SSNG3_Sub93] | 66.3 nM | 65.1 nM | 
AGAAACUACGAGAAGGACAUGUGGUCCUUCGGGAAAAUGAGGAUCACCCAUGUAGGAUAUCGUAGUUUCAGGAUCGUGAGAUCA [salish99_ISLExNG1_022 #HINGE] (puzzle (switch architecture): Inverted Small Loop Exclusion NG 1) |  |  | apparent KD of MS2 coat protein (MS2 coat protein [3]; input ligand: FMN 200 uM): 51.1 nM; apparent KD of MS2 coat protein (MS2 coat protein [3]; input ligand: none): 69.2 nM
GUGCUUGUCGAAGGAUAUGGUUACAUGAGGAUCACCCAUGUUAUGCUUGGUUACUUGUUUAGUUUCCAGAAGGUCGAUUAGUUG [salish99_ExNG2_001 #Hinge] (puzzle (switch architecture): Exclusion NG 2) |  |  | apparent KD of MS2 coat protein (MS2 coat protein [3]; input ligand: FMN 200 uM): 55.7 nM; apparent KD of MS2 coat protein (MS2 coat protein [3]; input ligand: none): 23 nM
AGGUGAGCUCGAUGGCGACAUGAGGAUCACCCAUGUACGAUCAGAAGGGCUCGGGCAAGAAGUGGGCAGGAUAUGGUCGGUGCC [Xeadion] (puzzle (switch architecture): Inverted Exclusion NG 3) |  |  | apparent KD of MS2 coat protein (MS2 coat protein [3]; input ligand: FMN 200 uM): 4.5 nM
